Assay results taken from the supplement of paper PMC7877785.
± gives the uncertainty stated by the source.

Experiment: self-splicing fitness, log relative to wild type (ln ratio); higher = more splicing; Tetrahymena group I intron in knt gene, E. coli kanamycin selection, DiMSum; sequences stand for … in CUCUCU…GGAGGGAAAAGUUAUCAGGCAUGCACCUGGUAGCUAGUCUUUAAACCAAUAGAUUGCAUCGGUUUAAAAGGCAAGACCGUCAAAUUGCGGGAAAGGGGUCAACAGCCGUUCAGUACCAAGUCUCAGGGGAAACUUUGAGAUGGCCUUGCAAAGGGUAUGGUAAUAAGCUGACGGACAUGGUCCUAACCACGCAGCCAAGUCCUAAGUCAACAGAUCUUCUGUUGAUAUGGAUGCAGUUCACAGACUAAAUGUCGGUCGGGGAAGAUGUAUUCUUCUCAUAAGAUAUAGUCGGACCUCUCCUUAAUGGGAGCUAGCGGAUGAAGUGAUGCAACACUGGAGCCGCUGGGAACUAAUUUGUAUGCGAAAGUAUAUUGAUUAGUUUUGGAGUACUCGUGGUCG
Method in brief: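 Library with all eight P1ex-region intron nucleotides randomised, intron inside the knt kanamycin-resistance gene on pET-22b(+), in E. coli BL21(DE3). Cells grew overnight at 37°C or 30°C on LB agar with or without 25 μg/mL kanamycin (plus 100 μg/mL carbenicillin, 50 μM IPTG, 0.2% rhamnose), in six replicate transformations. Pooled colonies were amplicon-sequenced on Illumina HiSeq 2500. DiMSum fitness is the error-weighted combination of wild-type-normalised replicate fold changes, kanamycin versus none.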

Row | Sequence | self-splicing fitness (ln) (30 °C) | self-splicing fitness (ln) (37 °C)
1 | UACAAGCAAUAUUACGACGU | -0.941 ± 0.07 | -0.409 ± 0.081
2 | UACAAGCAAUAUUACGAGGC | -2.4 ± 0.3 | -1.84 ± 0.28
3 | UACAAGCAAUAUUACGAGUA | -2.13 ± 0.08 | -0.707 ± 0.078
4 | UACAAGCAAUAUUACGAGUC | -3.06 ± 0.11 | -1.93 ± 0.15
5 | UACAAGCAAUAUUACGAUGU | -3.72 ± 0.17 | -1.96 ± 0.14
6 | UACAAGCAAUAUUACGCCUA | 0.14 ± 0.067 | -0.0341 ± 0.071
7 | UACAAGCAAUAUUACGCGGG | -2.43 ± 0.086 | -1.25 ± 0.099
8 | UACAAGCAAUAUUACGCGUA | -2.92 ± 0.24 | -2.76 ± 0.33
9 | UACAAGCAAUAUUACGCUAG | -2.16 ± 0.11 | -1.13 ± 0.11
10 | UACAAGCAAUAUUACGGAAG | -4.3 ± 0.46 | -2.46 ± 0.34
11 | UACAAGCAAUAUUACGGAUC | -2.59 ± 0.21 | 0.047 ± 0.15
12 | UACAAGCAAUAUUACGGGCG | -0.448 ± 0.1 | -0.308 ± 0.11
13 | UACAAGCAAUAUUACGGUAU | -3.83 ± 0.21 | -2.54 ± 0.16
14 | UACAAGCAAUAUUACGGUCA | 0.157 ± 0.062 | 0.514 ± 0.072
15 | UACAAGCAAUAUUACGUAGG | -4 ± 0.26 | -2.78 ± 0.27
16 | UACAAGCAAUAUUACGUAGU | -3.88 ± 0.17 | -2.18 ± 0.15
17 | UACAAGCAAUAUUACGUAUC | -3.94 ± 0.24 | -2.69 ± 0.21
18 | UACAAGCAAUAUUACGUGAA | -2.42 ± 0.078 | -1.7 ± 0.1
19 | UACAAGCAAUAUUACGUGCC | -2.49 ± 0.15 | -1.53 ± 0.14
20 | UACAAGCAAUAUUACGUUGG | -3.19 ± 0.12 | -1.41 ± 0.1
21 | UACCAGCAAUAUUACGAACA | -0.482 ± 0.096 | -0.258 ± 0.12
22 | UACCAGCAAUAUUACGAACG | -0.468 ± 0.063 | -0.562 ± 0.07
23 | UACCAGCAAUAUUACGAACU | -2.26 ± 0.1 | -0.819 ± 0.11
24 | UACCAGCAAUAUUACGAAUA | -0.776 ± 0.086 | 0.199 ± 0.093

Row | Sequence | self-splicing fitness (ln) (30 °C) | self-splicing fitness (ln) (37 °C)
25 | UACCAGCAAUAUUACGACCA | -0.314 ± 0.081 | 0.106 ± 0.1
26 | UACCAGCAAUAUUACGACCG | -0.151 ± 0.067 | 0.099 ± 0.095
27 | UACCAGCAAUAUUACGACCU | -2.1 ± 0.17 | -1.57 ± 0.17
28 | UACCAGCAAUAUUACGACGU | -2.11 ± 0.082 | -0.692 ± 0.089
29 | UACCAGCAAUAUUACGAGCC | -4.51 ± 0.33 | -2.07 ± 0.32
30 | UACCAGCAAUAUUACGAGCU | -3.29 ± 0.21 | -2.7 ± 0.24
31 | UACCAGCAAUAUUACGCAAC | -2.85 ± 0.3 | -2.19 ± 0.27
32 | UACCAGCAAUAUUACGCAGG | -3.68 ± 0.21 | -2.37 ± 0.27
33 | UACCAGCAAUAUUACGCCCC | -2.68 ± 0.5 | -0.87 ± 0.4
34 | UACCAGCAAUAUUACGCCGC | -2.89 ± 0.38 | -2.37 ± 0.35
35 | UACCAGCAAUAUUACGCCUA | 0.00559 ± 0.047 | 0.659 ± 0.065
36 | UACCAGCAAUAUUACGCGCA | 0.0526 ± 0.065 | -0.42 ± 0.08
37 | UACCAGCAAUAUUACGCGUU | -1.64 ± 0.07 | -0.917 ± 0.086
38 | UACCAGCAAUAUUACGGAUA | -1.12 ± 0.077 | -0.394 ± 0.078
39 | UACCAGCAAUAUUACGGAUU | -0.984 ± 0.071 | -0.93 ± 0.077
40 | UACCAGCAAUAUUACGGCGG | -1.07 ± 0.058 | -0.549 ± 0.081
41 | UACCAGCAAUAUUACGGCUA | 0.185 ± 0.066 | 0.554 ± 0.089
42 | UACCAGCAAUAUUACGGUUA | -0.306 ± 0.063 | 0.23 ± 0.076
43 | UACCAGCAAUAUUACGUGCG | -0.811 ± 0.044 | -0.367 ± 0.061
44 | UACCAGCAAUAUUACGUUAU | -2.97 ± 0.12 | -2.26 ± 0.14
45 | UACGAGCAAUAUUACGAGAG | -3.93 ± 0.28 | -2.8 ± 0.22
46 | UACGAGCAAUAUUACGAUAC | -3.5 ± 0.19 | -1.61 ± 0.13
47 | UACGAGCAAUAUUACGCCCU | -3.96 ± 0.47 | –
48 | UACGAGCAAUAUUACGCCUG | -1.65 ± 0.1 | -0.887 ± 0.14

Row | Sequence | self-splicing fitness (ln) (30 °C) | self-splicing fitness (ln) (37 °C)
49 | UACGAGCAAUAUUACGCUUA | -1.96 ± 0.25 | -0.594 ± 0.22
50 | UACGAGCAAUAUUACGGAAA | – | -1.29 ± 0.32
51 | UACGAGCAAUAUUACGGAUC | -3.56 ± 0.4 | -2.63 ± 0.37
52 | UACGAGCAAUAUUACGGCUU | -3.48 ± 0.21 | -1.84 ± 0.16
53 | UACGAGCAAUAUUACGGGCG | -0.999 ± 0.12 | -0.902 ± 0.14
54 | UACGAGCAAUAUUACGGGUG | -1.88 ± 0.074 | -0.725 ± 0.087
55 | UACGAGCAAUAUUACGGUGC | -3.46 ± 0.4 | -2.43 ± 0.48
56 | UACGAGCAAUAUUACGGUUU | -3.06 ± 0.17 | -2.32 ± 0.18
57 | UACGAGCAAUAUUACGUCAG | -3.08 ± 0.34 | -3.01 ± 0.36
58 | UACGAGCAAUAUUACGUCGA | -2.65 ± 0.42 | -1.45 ± 0.25
59 | UACGAGCAAUAUUACGUGAA | -3.05 ± 0.2 | –
60 | UACGAGCAAUAUUACGUGGA | -3.55 ± 0.23 | -1.98 ± 0.19
61 | UACUAGCAAUAUUACGAAGC | -2.06 ± 0.38 | -3.04 ± 0.43
62 | UACUAGCAAUAUUACGACGC | -2.01 ± 0.25 | 0.0923 ± 0.18
63 | UACUAGCAAUAUUACGACGG | -0.517 ± 0.12 | -0.301 ± 0.15
64 | UACUAGCAAUAUUACGACGU | -2.22 ± 0.1 | -1.29 ± 0.12
65 | UACUAGCAAUAUUACGCACG | -0.877 ± 0.089 | -0.992 ± 0.11
66 | UACUAGCAAUAUUACGCCUA | -0.895 ± 0.14 | 0.591 ± 0.13
67 | UACUAGCAAUAUUACGCUCC | -2.42 ± 0.23 | -1.21 ± 0.23
68 | UACUAGCAAUAUUACGGAAA | -2.64 ± 0.22 | -1.27 ± 0.18
69 | UACUAGCAAUAUUACGGAGA | -2.59 ± 0.17 | -1.84 ± 0.16
70 | UACUAGCAAUAUUACGGAUA | -1.72 ± 0.096 | -0.886 ± 0.092
71 | UACUAGCAAUAUUACGGCUG | -0.825 ± 0.14 | -0.545 ± 0.19
72 | UACUAGCAAUAUUACGGGGA | -1.37 ± 0.14 | -0.992 ± 0.12

Row | Sequence | self-splicing fitness (ln) (30 °C) | self-splicing fitness (ln) (37 °C)
73 | UACUAGCAAUAUUACGGUCG | -0.0757 ± 0.12 | 0.338 ± 0.16
74 | UACUAGCAAUAUUACGUAUG | -3.59 ± 0.26 | -1.8 ± 0.23
75 | UACUAGCAAUAUUACGUGAG | -3.38 ± 0.13 | -2.56 ± 0.23
76 | UAGAAGCAAUAUUACGAAUA | -1.14 ± 0.12 | -0.376 ± 0.12
77 | UAGAAGCAAUAUUACGAAUC | -3.48 ± 0.4 | -2.65 ± 0.36
78 | UAGAAGCAAUAUUACGAAUG | -0.651 ± 0.071 | -0.298 ± 0.09
79 | UAGAAGCAAUAUUACGACAA | -0.512 ± 0.1 | -0.213 ± 0.11
80 | UAGAAGCAAUAUUACGACCG | -0.345 ± 0.18 | -0.138 ± 0.25
81 | UAGAAGCAAUAUUACGAGAG | -3.63 ± 0.28 | -1.46 ± 0.34
82 | UAGAAGCAAUAUUACGAGCU | -3.2 ± 0.25 | -1.18 ± 0.2
83 | UAGAAGCAAUAUUACGAGGC | – | -2.21 ± 0.42
84 | UAGAAGCAAUAUUACGAGUG | -0.527 ± 0.048 | -0.505 ± 0.071
85 | UAGAAGCAAUAUUACGAUCA | -0.731 ± 0.064 | 0.138 ± 0.086
86 | UAGAAGCAAUAUUACGCAAC | -1.44 ± 0.18 | -2.33 ± 0.42
87 | UAGAAGCAAUAUUACGCACC | -2.13 ± 0.27 | -1.44 ± 0.25
88 | UAGAAGCAAUAUUACGCGAA | -1.61 ± 0.18 | -0.748 ± 0.17
89 | UAGAAGCAAUAUUACGCUCA | 0.205 ± 0.16 | -0.337 ± 0.18
90 | UAGAAGCAAUAUUACGGAUC | -2.24 ± 0.12 | -1.49 ± 0.17
91 | UAGAAGCAAUAUUACGGCAG | -0.136 ± 0.12 | 0.24 ± 0.16
92 | UAGAAGCAAUAUUACGGCGC | -1.94 ± 0.19 | -0.275 ± 0.3
93 | UAGAAGCAAUAUUACGGCGU | -0.78 ± 0.077 | -0.678 ± 0.11
94 | UAGAAGCAAUAUUACGGGCA | -1.17 ± 0.16 | -0.144 ± 0.12
95 | UAGAAGCAAUAUUACGUCGG | -0.813 ± 0.073 | -0.306 ± 0.091
96 | UAGAAGCAAUAUUACGUGCA | -0.492 ± 0.087 | -0.0303 ± 0.093
